Measured values from patent US20030211992A1 (published 2003).

Legend:
human IGFBP-1 = molecular target: T1, human IGFBP-1 (human, UniProt P08833 26-259); experiment: competitive phage ELISA
T1 construct: biotinylated in the ELISA formats; amine-coupled to the chip in peptide kinetics
T1 sequence (looked up): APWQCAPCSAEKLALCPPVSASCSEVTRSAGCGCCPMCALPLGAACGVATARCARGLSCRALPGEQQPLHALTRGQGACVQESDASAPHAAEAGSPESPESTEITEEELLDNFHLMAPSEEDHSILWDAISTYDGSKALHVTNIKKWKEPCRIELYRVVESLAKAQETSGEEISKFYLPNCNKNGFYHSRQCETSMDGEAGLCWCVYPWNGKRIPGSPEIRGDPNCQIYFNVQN

[1] = molecular target: T2, recombinant human IGFBP-3 (human, UniProt P17936 28-291); experiment: competitive phage ELISA
T2 construct: biotinylated and held on a streptavidin chip in the ALS experiment
T2 sequence (P17936 28-291 limits assumed): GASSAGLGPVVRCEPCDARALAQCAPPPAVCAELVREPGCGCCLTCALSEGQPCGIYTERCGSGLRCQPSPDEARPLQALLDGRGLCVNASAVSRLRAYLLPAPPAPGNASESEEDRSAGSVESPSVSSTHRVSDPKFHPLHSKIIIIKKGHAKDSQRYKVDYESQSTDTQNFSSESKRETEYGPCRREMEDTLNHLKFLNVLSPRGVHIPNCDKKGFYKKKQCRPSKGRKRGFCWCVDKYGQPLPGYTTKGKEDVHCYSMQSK

Substance | IC50 (human IGFBP-1) [nM] | relative IC50 (mut/G1S-A70V) (human IGFBP-1) | IC50 [1] [nM] | relative IC50 (mut/G1S-A70V) [1]
L64A IGF-1 (G1S-A70V background) on phage (from UniProt P69168 267-424) (ligand) | 12.1 | 1.5 | 0.93 | 1.2
M59A IGF-1 (G1S-A70V background) on phage (from UniProt P69168 267-424) (ligand) | 13.1 | 1.6 | 0.74 | 1
P63A IGF-1 (G1S-A70V background) on phage (from UniProt P69168 267-424) (ligand) | > 1000 | > 100 | > 100 | > 100
P66A IGF-1 (G1S-A70V background) on phage (from UniProt P69168 267-424) (ligand) | 9.4 | 1.1 | 0.57 | 0.8
Q40A IGF-1 (G1S-A70V background) on phage (from UniProt P69168 267-424) (ligand) | 10.2 | 1.2 | 0.56 | 0.7
R37A IGF-1 (G1S-A70V background) on phage (from UniProt P69168 267-424) (ligand) | 12.3 | 1.5 | 0.75 | 1
R50A IGF-1 (G1S-A70V background) on phage (from UniProt P69168 267-424) (ligand) | 16.2 | 2 | 0.64 | 0.9
R55A IGF-1 (G1S-A70V background) on phage (from UniProt P69168 267-424) (ligand) | 9 | 1.1 | 0.66 | 0.9
R56A IGF-1 (G1S-A70V background) on phage (from UniProt P69168 267-424) (ligand) | 13.1 | 1.6 | 1 | 1.3
S1G IGF-1 (single mutant of G1S-A70V) on phage (from UniProt P69168 267-424) (ligand) | 11.2 | 1.4 | 0.99 | 1.3
S33A IGF-1 (G1S-A70V background) on phage (from UniProt P69168 267-424) (ligand) | 9.1 | 1.1 | 1.01 | 1.3
S34A IGF-1 (G1S-A70V background) on phage (from UniProt P69168 267-424) (ligand) | 9.5 | 1.2 | 1.65 | 2.2
S35A IGF-1 (G1S-A70V background) on phage (from UniProt P69168 267-424) (ligand) | 11.7 | 1.4 | 0.47 | 0.6
S51A IGF-1 (G1S-A70V background) on phage (from UniProt P69168 267-424) (ligand) | 13.4 | 1.6 | 0.65 | 0.9
S69A IGF-1 (G1S-A70V background) on phage (from UniProt P69168 267-424) (ligand) | 12.8 | 1.6 | 0.71 | 1.2
T4A IGF-1 (G1S-A70V background) on phage (from UniProt P69168 267-424) (ligand) | 19.4 | 2.4 | 0.8 | 1.1
T29A IGF-1 (G1S-A70V background) on phage (from UniProt P69168 267-424) (ligand) | 7.3 | 0.9 | 1.23 | 1.6
